Laboratory results published in patent US20230036655A1 (OTSUKA PHARMACEUTICAL, published 2023).

T1: human GDF15 (hGDF15), mature, wild-type (human, UniProt Q99988 197-308)
T1 construct: Bought recombinant protein: R&D Systems 957-GD-025/CF in most assays, 9279-GD in the crystal and the GDF15/GFRAL/RET assay; It was biotinylated in the GFRAL assay; also called hGDF15 (WT); rhGDF15
T1 sequence: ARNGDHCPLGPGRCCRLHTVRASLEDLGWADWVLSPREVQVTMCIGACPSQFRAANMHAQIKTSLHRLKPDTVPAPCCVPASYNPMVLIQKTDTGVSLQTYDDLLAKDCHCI


What was measured:
[1] = biological target: T1, human GDF15 (hGDF15), mature, wild-type; experiment: ELISA, hGDF15 immobilised; binding at 5 ng/mL antibody, HuMAB2 = 100
Description: A 100 μL hGDF15 solution (0.4 μg/ml) was added to a 96-well plate and left at 4° C. until the next morning to prepare a plate for ELISA. To the plate, 1% BSA was added for blocking for 1 hour. A dilution series of the culture supernatant containing the variant antibody was prepared from 30-fold dilution (common ratio of dilution factor was 3), and 100 μL of each solution was added to the ELISA plate and left for 2 hours. As a secondary antibody, an HRP conjugated anti-human IgG antibody (Gene Tex, GTX26759) (20000-fold dilution) was added and left for 1 hour. TMB (Sigma, T-0440) was used for color development reaction, and 2N sulfuric acid was used as a reaction terminator. The absorbance was measured at 450 nm.

[2] = biological target: T1, human GDF15 (hGDF15), mature, wild-type; experiment: ELISA, hGDF15 immobilised

| Binder | fold change in binding strength compared to HuMAB2 [1] [fold] | binding result [2] |
| --- | --- | --- |
| H3-L48K (antibody, human IgG1, kappa, V domains shown, In the label, L means the L chain; Tested as culture supernatant; also called HuMAB2 variant L48K) VH: QVQLQESGPGLVKPSETLSLTCTVSGFSINSDCYWIWIRQPPGKGLEYIGYTFYSGITYYNPSLASRTTISRDTSKNQFSLKLSSVTAADTAVYYCARDCDYAMDYWGQGTLVTVSS VL: DIQMTQSPSSLSASVGDRVTITCRASQKISNYLNWYQQKPGKAVKLLIHYTSTLHSGVPSRFSGSGSGTDYTLTISSLQPEDFATYFCQQGNTLPWTFGQGTKLEIKR | ~1.5 | – |
| H49D-L7 (antibody, human IgG1, kappa, V domains shown, In the label, H means the H chain; also called HuMAB2 variant H49D) VH: QVQLQESGPGLVKPSETLSLTCTVSGFSINDDCYWIWIRQPPGKGLEYIGYTFYSGITYYNPSLASRTTISRDTSKNQFSLKLSSVTAADTAVYYCARDCDYAMDYWGQGTLVTVSS VL: DIQMTQSPSSLSASVGDRVTITCRASQDISNYLNWYQQKPGKAVKLLIHYTSTLHSGVPSRFSGSGSGTDYTLTISSLQPEDFATYFCQQGNTLPWTFGQGTKLEIKR | – | binds |
| H48S-L7 (antibody, human IgG1, kappa, V domains shown, Tested as culture supernatant; also called HuMAB2 variant H48S) VH: QVQLQESGPGLVKPSETLSLTCTVSGFSISSDCYWIWIRQPPGKGLEYIGYTFYSGITYYNPSLASRTTISRDTSKNQFSLKLSSVTAADTAVYYCARDCDYAMDYWGQGTLVTVSS VL: DIQMTQSPSSLSASVGDRVTITCRASQDISNYLNWYQQKPGKAVKLLIHYTSTLHSGVPSRFSGSGSGTDYTLTISSLQPEDFATYFCQQGNTLPWTFGQGTKLEIKR | ~1.5 | – |
| H120F-L7 (antibody, human IgG1, kappa, V domains shown, In the label, H means the H chain; Tested as culture supernatant; also called HuMAB2 variant H120F) VH: QVQLQESGPGLVKPSETLSLTCTVSGFSINSDCYWIWIRQPPGKGLEYIGYTFYSGITYYNPSLASRTTISRDTSKNQFSLKLSSVTAADTAVYYCARDCDFAMDYWGQGTLVTVSS VL: DIQMTQSPSSLSASVGDRVTITCRASQDISNYLNWYQQKPGKAVKLLIHYTSTLHSGVPSRFSGSGSGTDYTLTISSLQPEDFATYFCQQGNTLPWTFGQGTKLEIKR | ~1.5 | – |
| H3-L74H (antibody, human IgG1, kappa, V domains shown, In the label, L means the L chain; also called HuMAB2 variant L74H) VH: QVQLQESGPGLVKPSETLSLTCTVSGFSINSDCYWIWIRQPPGKGLEYIGYTFYSGITYYNPSLASRTTISRDTSKNQFSLKLSSVTAADTAVYYCARDCDYAMDYWGQGTLVTVSS VL: DIQMTQSPSSLSASVGDRVTITCRASQDISNYLNWYQQKPGKAVKLLIHYTSTHHSGVPSRFSGSGSGTDYTLTISSLQPEDFATYFCQQGNTLPWTFGQGTKLEIKR | – | binds |
| H3-L112D (antibody, human IgG1, kappa, V domains shown, In the label, L means the L chain; Tested as culture supernatant; also called HuMAB2 variant L112D) VH: QVQLQESGPGLVKPSETLSLTCTVSGFSINSDCYWIWIRQPPGKGLEYIGYTFYSGITYYNPSLASRTTISRDTSKNQFSLKLSSVTAADTAVYYCARDCDYAMDYWGQGTLVTVSS VL: DIQMTQSPSSLSASVGDRVTITCRASQDISNYLNWYQQKPGKAVKLLIHYTSTLHSGVPSRFSGSGSGTDYTLTISSLQPEDFATYFCQQGDTLPWTFGQGTKLEIKR | ~1.5 | – |
| H83R-L7 (antibody, human IgG1, kappa, V domains shown, In the label, H means the H chain; Tested as culture supernatant; also called HuMAB2 variant H83R) VH: QVQLQESGPGLVKPSETLSLTCTVSGFSINSDCYWIWIRQPPGKGLEYIGYTFYSGITYYNPSLRSRTTISRDTSKNQFSLKLSSVTAADTAVYYCARDCDYAMDYWGQGTLVTVSS VL: DIQMTQSPSSLSASVGDRVTITCRASQDISNYLNWYQQKPGKAVKLLIHYTSTLHSGVPSRFSGSGSGTDYTLTISSLQPEDFATYFCQQGNTLPWTFGQGTKLEIKR | ~1.5 | – |

Results, then the binder that gave them:

| fold change in binding strength compared to HuMAB2 [1] [fold] | binding result [2] | Binder |
| --- | --- | --- |
| – | binds | H3-L72F (antibody, human IgG1, kappa, V domains shown, In the label, L means the L chain; also called HuMAB2 variant L72F) VH: QVQLQESGPGLVKPSETLSLTCTVSGFSINSDCYWIWIRQPPGKGLEYIGYTFYSGITYYNPSLASRTTISRDTSKNQFSLKLSSVTAADTAVYYCARDCDYAMDYWGQGTLVTVSS VL: DIQMTQSPSSLSASVGDRVTITCRASQDISNYLNWYQQKPGKAVKLLIHYTFTLHSGVPSRFSGSGSGTDYTLTISSLQPEDFATYFCQQGNTLPWTFGQGTKLEIKR |
| – | binds | H49R-L7 (antibody, human IgG1, kappa, V domains shown, In the label, H means the H chain; also called HuMAB2 variant H49R) VH: QVQLQESGPGLVKPSETLSLTCTVSGFSINRDCYWIWIRQPPGKGLEYIGYTFYSGITYYNPSLASRTTISRDTSKNQFSLKLSSVTAADTAVYYCARDCDYAMDYWGQGTLVTVSS VL: DIQMTQSPSSLSASVGDRVTITCRASQDISNYLNWYQQKPGKAVKLLIHYTSTLHSGVPSRFSGSGSGTDYTLTISSLQPEDFATYFCQQGNTLPWTFGQGTKLEIKR |
| – | binds | H71Y-L7 (antibody, human IgG1, kappa, V domains shown, In the label, H means the H chain; also called HuMAB2 variant H71Y) VH: QVQLQESGPGLVKPSETLSLTCTVSGFSINSDCYWIWIRQPPGKGLEYIGYTYYSGITYYNPSLASRTTISRDTSKNQFSLKLSSVTAADTAVYYCARDCDYAMDYWGQGTLVTVSS VL: DIQMTQSPSSLSASVGDRVTITCRASQDISNYLNWYQQKPGKAVKLLIHYTSTLHSGVPSRFSGSGSGTDYTLTISSLQPEDFATYFCQQGNTLPWTFGQGTKLEIKR |
